Test results reported in paper PMC12645917.

Key:
[1] = target: PEDV S-Trimer (trimerized PEDV spike protein, 2P-stabilised, residues 1-1,319 with C-terminal GCN4 trimerization motif) (porcine epidemic diarrhea virus (PEDV)); test: SEC; purified protein on Superose 6 increase 10/300 GL, 20 mM HEPES pH 7.6, 150 mM NaCl; single peak compared with the 669 kDa standard
[2] = target: TGEV S-Trimer (trimerized TGEV spike protein, 2P-stabilised, residues 1-1,388 with C-terminal GCN4 trimerization motif) (transmissible gastroenteritis virus (TGEV)); test: as above

## PEDV S-Trimer (trimerized PEDV spike protein, 2P-stabilised, residues 1-1,319 with C-terminal GCN4 trimerization motif) (natural protein)
[1]
  stoichiometry N: 3

## TGEV S-Trimer (trimerized TGEV spike protein, 2P-stabilised, residues 1-1,388 with C-terminal GCN4 trimerization motif) (natural protein)
[2]
  stoichiometry N: 3
